Data reported in US20190224282A1.
Blank lines part the entries; values can stand above or below the substance they belong to.

Legend:
[1] = biological target: cation-independent mannose-6-phosphate/IGF-II receptor on GM4668 human skin fibroblasts (human) (UniProt P11717); test: cell-based or functional assay
[2] = biological target: cation-independent mannose-6-phosphate/IGF-II receptor on GM4668 human skin fibroblasts (human) (UniProt P11717)
[3] = biological target: cation-independent mannose-6-phosphate/IGF-II receptor on GM4668 human skin fibroblasts (human) (UniProt P11717); remark: listed apart in the source

Chain of UniProt P11717 (P11717 41-2491): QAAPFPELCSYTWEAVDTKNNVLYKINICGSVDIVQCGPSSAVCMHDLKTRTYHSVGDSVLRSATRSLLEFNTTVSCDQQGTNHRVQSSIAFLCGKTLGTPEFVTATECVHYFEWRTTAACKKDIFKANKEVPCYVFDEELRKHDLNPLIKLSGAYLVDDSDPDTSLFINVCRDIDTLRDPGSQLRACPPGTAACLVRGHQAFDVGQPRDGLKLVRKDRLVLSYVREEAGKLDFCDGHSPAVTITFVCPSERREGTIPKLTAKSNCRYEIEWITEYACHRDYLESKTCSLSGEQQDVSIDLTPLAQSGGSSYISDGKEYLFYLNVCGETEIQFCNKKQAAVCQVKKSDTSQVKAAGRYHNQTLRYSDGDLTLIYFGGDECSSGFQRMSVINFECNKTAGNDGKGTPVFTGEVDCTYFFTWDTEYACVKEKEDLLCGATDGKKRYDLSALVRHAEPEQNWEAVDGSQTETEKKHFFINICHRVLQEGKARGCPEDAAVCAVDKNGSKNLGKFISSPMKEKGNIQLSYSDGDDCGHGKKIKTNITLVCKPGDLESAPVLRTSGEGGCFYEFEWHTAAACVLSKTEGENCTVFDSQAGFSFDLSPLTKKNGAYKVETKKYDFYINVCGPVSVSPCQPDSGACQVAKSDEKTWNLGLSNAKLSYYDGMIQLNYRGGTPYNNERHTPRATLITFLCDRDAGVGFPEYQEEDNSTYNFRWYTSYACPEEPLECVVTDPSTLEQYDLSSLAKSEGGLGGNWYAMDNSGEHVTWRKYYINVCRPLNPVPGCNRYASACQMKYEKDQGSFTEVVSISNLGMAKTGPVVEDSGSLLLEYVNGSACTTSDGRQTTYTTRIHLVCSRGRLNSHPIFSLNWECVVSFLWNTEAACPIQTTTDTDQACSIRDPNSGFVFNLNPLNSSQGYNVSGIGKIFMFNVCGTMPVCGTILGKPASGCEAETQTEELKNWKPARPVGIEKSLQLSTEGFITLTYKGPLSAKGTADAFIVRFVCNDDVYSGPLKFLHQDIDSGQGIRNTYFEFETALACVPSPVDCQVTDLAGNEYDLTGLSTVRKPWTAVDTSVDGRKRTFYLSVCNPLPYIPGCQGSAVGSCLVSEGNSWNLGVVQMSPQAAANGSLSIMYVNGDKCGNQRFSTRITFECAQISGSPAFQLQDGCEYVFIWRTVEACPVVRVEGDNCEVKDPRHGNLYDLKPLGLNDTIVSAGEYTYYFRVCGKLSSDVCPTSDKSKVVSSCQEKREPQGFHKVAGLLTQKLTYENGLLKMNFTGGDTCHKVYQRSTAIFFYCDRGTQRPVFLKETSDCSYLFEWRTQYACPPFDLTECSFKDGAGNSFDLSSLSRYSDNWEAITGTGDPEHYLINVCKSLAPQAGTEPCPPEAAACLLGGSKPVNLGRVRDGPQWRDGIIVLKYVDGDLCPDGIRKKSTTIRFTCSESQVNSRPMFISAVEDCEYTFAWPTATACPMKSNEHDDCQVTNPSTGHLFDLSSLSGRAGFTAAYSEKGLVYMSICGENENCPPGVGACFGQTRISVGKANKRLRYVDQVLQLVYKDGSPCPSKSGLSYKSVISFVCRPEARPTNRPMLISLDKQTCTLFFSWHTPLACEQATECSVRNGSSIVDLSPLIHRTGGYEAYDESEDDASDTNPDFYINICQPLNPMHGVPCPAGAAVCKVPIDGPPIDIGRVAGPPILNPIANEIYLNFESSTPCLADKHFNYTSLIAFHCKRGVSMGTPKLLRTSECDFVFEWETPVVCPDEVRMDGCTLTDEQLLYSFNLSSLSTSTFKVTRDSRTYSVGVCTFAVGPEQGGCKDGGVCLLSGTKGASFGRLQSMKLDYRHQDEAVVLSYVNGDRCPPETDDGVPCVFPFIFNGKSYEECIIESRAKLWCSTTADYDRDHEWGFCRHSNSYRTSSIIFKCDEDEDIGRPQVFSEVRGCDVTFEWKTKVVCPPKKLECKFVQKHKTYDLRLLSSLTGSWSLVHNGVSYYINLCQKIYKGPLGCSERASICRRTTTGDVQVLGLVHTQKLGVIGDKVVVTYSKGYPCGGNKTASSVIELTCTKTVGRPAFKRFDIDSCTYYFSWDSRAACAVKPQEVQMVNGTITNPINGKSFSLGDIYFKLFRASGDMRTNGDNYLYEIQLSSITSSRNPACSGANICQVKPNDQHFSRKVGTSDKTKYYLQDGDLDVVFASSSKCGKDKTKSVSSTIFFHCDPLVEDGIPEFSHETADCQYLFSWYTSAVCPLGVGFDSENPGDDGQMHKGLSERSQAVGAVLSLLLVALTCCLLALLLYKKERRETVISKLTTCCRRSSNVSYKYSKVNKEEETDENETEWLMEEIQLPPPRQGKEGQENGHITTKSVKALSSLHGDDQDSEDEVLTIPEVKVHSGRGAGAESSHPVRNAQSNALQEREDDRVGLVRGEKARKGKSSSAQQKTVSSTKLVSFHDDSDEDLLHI

+IGF-II (units/mg): uptake with excess IGF-II, 18 hours [1]: 336 units/mg
+M6P (units/mg): uptake with excess M6P, 18 hours [1]: 1 units/mg
Uptake (units/mg), GM4668 fibroblasts, 18 hours [1]: 352 units/mg
Substance: CHO GUS (from UniProt P08236 23-651) (enzyme)

+IGF-II (units/mg): uptake with excess IGF-II, 18 hours [1]: 84 units/mg
+M6P (units/mg): uptake with excess M6P, 18 hours [1]: 223 units/mg
Uptake (units/mg), GM4668 fibroblasts, 18 hours [1]: 310 units/mg
Substance: CHO GUS-GILTΔ1-7 (from UniProt P08236 23-651)

% IGF-II +M6P inhibition of uptake [1]: 100%
+IGF-II (units/mg): uptake with IGF-II, 22.5 hours [1]: 473 units/mg
+IGF-II (units/mg): uptake with excess IGF-II, 18 hours [1]: 258 units/mg
+IGF-II +M6P (units/mg): uptake with both inhibitors, 22.5 hours [1]: 0 units/mg
+IGF-II Uptake (units/mg), 21 hours [1]: 1010 units/mg
+M6P (units/mg): uptake with 8 mM M6P, 22.5 hours [1]: 639 units/mg
+M6P (units/mg): uptake with excess M6P, 18 hours [1]: 412 units/mg
Uptake (units/mg), GM4668 fibroblasts, 18 hours [1]: 704 units/mg
Uptake (units/mg), MPS VII fibroblasts, 21 hours [1]: 4080 units/mg
Uptake (units/mg), fibroblasts, 22.5 hours [1]: 1580 units/mg
Substance: CHO GUSΔC18-GILTΔ1-7 (from UniProt P08236 23-633)

cell-associated GUS activity in GM4668 fibroblasts, fold over unmodified GUS [1]: 5 fold
Substance: GILT-GUS with Δ1-7 and Y27L mutations in the IGF-II portion, Leishmania-expressed (from UniProt P08236 23-651)

cell-associated GUS activity in GM4668 fibroblast lysate after about 18 h uptake, 150 U enzyme per well (untagged comparison) [2]: 4.5 U/mg lysate
cell-associated GUS activity in GM4668 fibroblast lysate after uptake of about 350-600 units of ConA-purified enzyme (untagged comparison) (Units/mg protein) [3]: 3.38
Substance: GUS (enzyme)

cell-associated GUS activity in GM4668 fibroblast lysate after uptake of about 350-600 units of ConA-purified enzyme in the presence of excess IGF-II as competitor (Units/mg protein) [3]: 13.5
cell-associated GUS activity in GM4668 fibroblast lysate after uptake of about 350-600 units of ConA-purified enzyme, no competitor (Units/mg protein) [3]: 245
Substance: GUS-GILTΔ1-7 (from UniProt P08236)

cell-associated GUS activity in GM4668 fibroblast lysate after about 18 h uptake, 150 U enzyme per well, no competitor [2]: 24.1 U/mg lysate
cell-associated GUS activity in GM4668 fibroblast lysate after uptake of about 350-600 units of ConA-purified enzyme in the presence of excess IGF-II as competitor (Units/mg protein) [3]: 7.93
cell-associated GUS activity in GM4668 fibroblast lysate after uptake of about 350-600 units of ConA-purified enzyme, no competitor (Units/mg protein) [3]: 55.1
cell-associated GILT-GUS in GM4668 fibroblasts, no IGF-II (units/mg lysate) [1]: > 24
cell-associated GILT-GUS in GM4668 fibroblasts, with excess IGF-II [1]: 5.4 U
cell-associated GUS activity in GM4668 fibroblasts, fold over unmodified GUS [1]: 10 fold
Substance: GUS-IGF-II fusion protein (GUS-GILT), Leishmania-expressed

Uptake (units/mg), MPS VII fibroblasts, 21 hours [1]: 1430 units/mg
Substance: HEK GUS-GILT (from UniProt P08236 23-651)

% IGF-II +M6P inhibition of uptake [1]: 99.1%
+IGF-II (units/mg): uptake with IGF-II, 22.5 hours [1]: 217 units/mg
+IGF-II +M6P (units/mg): uptake with both inhibitors, 22.5 hours [1]: 15 units/mg
+IGF-II Uptake (units/mg), 21 hours [1]: 439 units/mg
+M6P (units/mg): uptake with 8 mM M6P, 22.5 hours [1]: 952 units/mg
Uptake (units/mg), MPS VII fibroblasts, 21 hours [1]: 4730 units/mg
Uptake (units/mg), fibroblasts, 22.5 hours [1]: 1590 units/mg
Substance: HEK GUS-GILTF19S (from UniProt P08236 23-651)

% IGF-II +M6P inhibition of uptake [1]: 100%
+IGF-II (units/mg): uptake with IGF-II, 22.5 hours [1]: 22 units/mg
+IGF-II +M6P (units/mg): uptake with both inhibitors, 22.5 hours [1]: 0 units/mg
+IGF-II Uptake (units/mg), 21 hours [1]: 388 units/mg
+M6P (units/mg): uptake with 8 mM M6P, 22.5 hours [1]: 846 units/mg
Uptake (units/mg), MPS VII fibroblasts, 21 hours [1]: 4230 units/mg
Uptake (units/mg), fibroblasts, 22.5 hours [1]: 1230 units/mg
Substance: HEK GUS-GILTF19SE12K (from UniProt P08236 23-651)

Uptake (units/mg), MPS VII fibroblasts, 21 hours [1]: 1510 units/mg
Substance: HEK GUS-GILTY27L (from UniProt P08236 23-651)

+IGF-II Uptake (units/mg), 21 hours [1]: 1210 units/mg
Uptake (units/mg), MPS VII fibroblasts, 21 hours [1]: 5190 units/mg
Substance: HEK GUSΔC18-GILTΔ1-7 (from UniProt P08236 23-633)
